Measured values from IntAct's records for PubMed 28380382.

B1: Complex III assembly factor LYRM7 (Homo sapiens), Q5U5X0 (parent)
chain: MGRAVKVLQLFKTLHRTRQQVFKNDARALEAARIKINEEFKNNKSETSSKKIEELMKIGSDVELLLRTSVIQGIHTDHNTLKLVPRKDLLVENVPYCDAPTQKQ
partner: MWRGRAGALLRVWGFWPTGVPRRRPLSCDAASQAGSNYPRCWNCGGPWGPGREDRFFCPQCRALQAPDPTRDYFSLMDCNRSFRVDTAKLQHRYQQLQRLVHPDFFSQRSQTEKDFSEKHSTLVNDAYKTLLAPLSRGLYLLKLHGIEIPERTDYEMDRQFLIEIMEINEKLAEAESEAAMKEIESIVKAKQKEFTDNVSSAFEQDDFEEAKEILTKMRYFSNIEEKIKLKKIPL

Variants of: B1
Conditions: with hsc20_human HSCB

Row | effect of a mutation on the interaction | Variant
1 | with no effect | MGRAVKVLQLFKTLHRTRQQAAANDARALEAARIKINEEFKNNKSETSSKKIEELMKIGSDVELLLRTSVIQGIHTDHNTLKLVPRKDLLVENVPYCDAPTQKQ [V21A;F22A;K23A]
2 | with no effect | MGRAVKVLQLFKTLHRTRQQVFKNNARALEAARIKINEEFKNNKSETSSKKIEELMKIGSDVELLLRTSVIQGIHTDHNTLKLVPRKDLLVENVPYCDAPTQKQ [D25N]
3 | disrupting interaction strength | MGRAVKVLQAAATLHRTRQQVFKNDARALEAARIKINEEFKNNKSETSSKKIEELMKIGSDVELLLRTSVIQGIHTDHNTLKLVPRKDLLVENVPYCDAPTQKQ [L10A;F11A;K12A]
